In patent US20190022241A1 (AbbVie / Abbott, published 2019):
Numbering of substitutions follows the chain as printed. Each block holds one binder with its values, some of them ahead of it.

Assays:
human SEZ6L ECD-His = biological target: T1, human SEZ6L ECD-His (human, UniProt Q9BYH1 29-955); test: ELISA on plates coated with SEZ6L protein
T1 construct: whole entry named
T1 sequence: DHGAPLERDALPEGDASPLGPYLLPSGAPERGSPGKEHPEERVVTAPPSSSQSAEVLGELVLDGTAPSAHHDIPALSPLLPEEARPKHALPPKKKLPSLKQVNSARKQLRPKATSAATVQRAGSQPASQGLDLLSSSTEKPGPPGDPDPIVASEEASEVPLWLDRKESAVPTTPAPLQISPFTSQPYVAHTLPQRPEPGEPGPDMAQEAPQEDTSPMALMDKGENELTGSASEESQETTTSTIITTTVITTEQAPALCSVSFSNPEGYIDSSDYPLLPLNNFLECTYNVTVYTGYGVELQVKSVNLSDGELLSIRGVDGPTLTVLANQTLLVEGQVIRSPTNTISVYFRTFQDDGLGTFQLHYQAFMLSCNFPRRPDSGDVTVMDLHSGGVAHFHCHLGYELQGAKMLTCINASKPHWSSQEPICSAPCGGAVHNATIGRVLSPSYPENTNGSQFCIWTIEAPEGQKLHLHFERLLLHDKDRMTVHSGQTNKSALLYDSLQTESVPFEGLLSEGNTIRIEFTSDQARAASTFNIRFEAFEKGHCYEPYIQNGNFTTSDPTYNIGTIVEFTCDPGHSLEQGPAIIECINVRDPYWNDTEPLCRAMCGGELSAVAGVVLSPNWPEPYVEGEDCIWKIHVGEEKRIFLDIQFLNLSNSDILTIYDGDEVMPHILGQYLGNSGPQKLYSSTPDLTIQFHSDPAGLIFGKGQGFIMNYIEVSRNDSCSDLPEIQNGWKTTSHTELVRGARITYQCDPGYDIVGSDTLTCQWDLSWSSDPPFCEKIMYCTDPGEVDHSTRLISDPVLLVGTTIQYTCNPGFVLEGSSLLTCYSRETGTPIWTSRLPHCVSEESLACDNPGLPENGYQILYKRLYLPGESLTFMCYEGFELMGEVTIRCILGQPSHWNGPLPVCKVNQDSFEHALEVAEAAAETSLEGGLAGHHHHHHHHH

human SEZ6L2 ECD-His = biological target: T2, human SEZ6L2 ECD-His (human, UniProt Q6UXD5 28-843); test: ELISA on plates coated with SEZ6L2 protein
T2 construct: whole entry named
T2 sequence (Q6UXD5 other isoform, or with tags, fused parts or gaps): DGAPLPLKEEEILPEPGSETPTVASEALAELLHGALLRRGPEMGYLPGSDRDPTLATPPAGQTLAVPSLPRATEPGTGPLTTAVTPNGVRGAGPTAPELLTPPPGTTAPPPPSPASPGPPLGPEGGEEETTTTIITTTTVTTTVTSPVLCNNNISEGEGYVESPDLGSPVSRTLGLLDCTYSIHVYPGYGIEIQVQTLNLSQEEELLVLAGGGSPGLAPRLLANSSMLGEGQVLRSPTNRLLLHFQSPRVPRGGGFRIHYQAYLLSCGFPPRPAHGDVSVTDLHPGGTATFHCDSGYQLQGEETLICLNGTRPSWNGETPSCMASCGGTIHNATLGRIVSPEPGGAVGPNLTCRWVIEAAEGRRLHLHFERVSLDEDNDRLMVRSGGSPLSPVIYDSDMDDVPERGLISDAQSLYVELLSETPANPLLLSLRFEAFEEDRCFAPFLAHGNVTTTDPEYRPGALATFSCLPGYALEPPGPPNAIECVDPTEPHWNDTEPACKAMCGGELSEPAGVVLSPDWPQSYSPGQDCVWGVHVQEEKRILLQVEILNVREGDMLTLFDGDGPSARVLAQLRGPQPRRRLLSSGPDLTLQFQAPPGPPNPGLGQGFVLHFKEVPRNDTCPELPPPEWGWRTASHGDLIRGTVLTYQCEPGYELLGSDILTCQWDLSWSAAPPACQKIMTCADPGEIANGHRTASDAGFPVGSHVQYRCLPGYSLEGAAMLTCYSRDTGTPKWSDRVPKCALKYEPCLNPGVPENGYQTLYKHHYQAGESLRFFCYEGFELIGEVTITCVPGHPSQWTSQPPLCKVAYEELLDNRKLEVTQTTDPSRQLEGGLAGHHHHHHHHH

[1] = biological target: T3, extracellular domain of cynomolgus SEZ6 on yeast (cynomolgus, UniProt Q53EL9 23-925 (human entry)); test: flow cytometry on yeast displaying the extracellular domain of cynomolgus SEZ6
T3 construct: yeast display; the whole entry is named; also called cSEZ6; cynomolgus SEZ6 ECD
T3 chain: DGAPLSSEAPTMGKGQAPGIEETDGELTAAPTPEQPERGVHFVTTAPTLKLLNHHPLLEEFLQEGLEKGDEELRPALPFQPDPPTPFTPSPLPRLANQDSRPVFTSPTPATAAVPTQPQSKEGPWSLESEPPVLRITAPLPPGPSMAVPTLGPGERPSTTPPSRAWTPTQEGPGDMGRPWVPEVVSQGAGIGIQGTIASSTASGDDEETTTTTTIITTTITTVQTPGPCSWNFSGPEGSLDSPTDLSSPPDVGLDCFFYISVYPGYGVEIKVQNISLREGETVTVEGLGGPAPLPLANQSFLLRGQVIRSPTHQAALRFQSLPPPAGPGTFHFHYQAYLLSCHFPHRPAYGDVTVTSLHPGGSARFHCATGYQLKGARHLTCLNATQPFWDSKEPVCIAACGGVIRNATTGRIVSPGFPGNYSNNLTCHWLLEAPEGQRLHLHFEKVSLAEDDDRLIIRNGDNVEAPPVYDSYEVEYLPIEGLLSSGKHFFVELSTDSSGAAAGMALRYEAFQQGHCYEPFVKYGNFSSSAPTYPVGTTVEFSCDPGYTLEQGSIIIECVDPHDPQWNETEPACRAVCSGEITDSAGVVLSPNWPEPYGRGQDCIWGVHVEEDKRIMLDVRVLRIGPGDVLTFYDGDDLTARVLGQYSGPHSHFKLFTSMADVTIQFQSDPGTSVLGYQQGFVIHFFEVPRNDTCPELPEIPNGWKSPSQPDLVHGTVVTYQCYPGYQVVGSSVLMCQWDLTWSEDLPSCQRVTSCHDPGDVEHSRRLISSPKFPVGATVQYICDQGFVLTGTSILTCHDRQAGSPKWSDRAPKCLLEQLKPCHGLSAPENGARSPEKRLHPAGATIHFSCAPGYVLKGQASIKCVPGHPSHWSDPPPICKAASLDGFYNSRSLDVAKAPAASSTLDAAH

rSEZ6-ECD-His = biological target: T4, rSEZ6-ECD-His (rat, UniProt Q7TSK2 20-922 (mouse entry)); test: bio-layer interferometry (ForteBio RED) or surface plasmon resonance (Biacore 2000) on rat SEZ6-His; the table does not say which; column Rat XR (Kd, nM)
T4 construct: the whole entry is named; also called rat recombinant SEZ6-His; rat SEZ6 ECD
T4 chain: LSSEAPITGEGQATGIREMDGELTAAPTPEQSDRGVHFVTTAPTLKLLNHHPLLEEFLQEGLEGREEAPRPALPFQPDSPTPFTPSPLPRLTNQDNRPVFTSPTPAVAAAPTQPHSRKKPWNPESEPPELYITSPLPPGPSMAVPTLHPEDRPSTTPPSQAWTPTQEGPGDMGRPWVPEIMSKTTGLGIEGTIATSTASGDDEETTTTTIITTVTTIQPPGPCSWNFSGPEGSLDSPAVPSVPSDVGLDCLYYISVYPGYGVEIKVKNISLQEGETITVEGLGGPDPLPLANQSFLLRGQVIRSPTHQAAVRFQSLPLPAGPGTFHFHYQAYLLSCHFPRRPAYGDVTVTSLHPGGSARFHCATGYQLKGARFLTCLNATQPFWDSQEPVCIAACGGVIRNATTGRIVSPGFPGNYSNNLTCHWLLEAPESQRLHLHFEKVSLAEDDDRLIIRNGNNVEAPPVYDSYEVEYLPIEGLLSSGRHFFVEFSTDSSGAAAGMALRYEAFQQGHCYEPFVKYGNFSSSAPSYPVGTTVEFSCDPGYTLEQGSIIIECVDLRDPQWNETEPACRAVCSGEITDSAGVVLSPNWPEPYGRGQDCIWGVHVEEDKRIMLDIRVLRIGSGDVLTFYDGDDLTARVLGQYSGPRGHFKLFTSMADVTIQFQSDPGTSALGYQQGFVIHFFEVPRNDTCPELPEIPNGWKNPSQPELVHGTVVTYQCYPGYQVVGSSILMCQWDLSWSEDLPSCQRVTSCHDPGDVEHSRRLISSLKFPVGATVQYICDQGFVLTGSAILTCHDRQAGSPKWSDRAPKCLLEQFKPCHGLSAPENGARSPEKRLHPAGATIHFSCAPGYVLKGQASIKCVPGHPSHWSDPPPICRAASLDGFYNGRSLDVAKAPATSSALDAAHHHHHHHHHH

hSEZ6-ECD-His = biological target: T5, hSEZ6-ECD-His (human, UniProt Q53EL9 20-925); test: bio-layer interferometry (ForteBio RED) or surface plasmon resonance (Biacore 2000) on human SEZ6-His; the table does not say which; column Hu Affinity (Kd, nM)
T5 construct: the whole entry is named; also called recombinant SEZ6-His; human recombinant SEZ6-His

[2] = biological target: T6, SEZ6 Sushi Domain 3 (amino acids 690-748) on yeast (human, UniProt Q53EL9 709-767); test: yeast display, flow cytometry;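 further: antibody binding to individual SEZ6 domains displayed on yeast, measured by flow cytometry, antibody at 50 nM purified or hybridoma supernatant diluted 1:2, 90 min on ice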
T6 construct: yeast display

[3] = biological target: T7, SEZ6 CUB Domain 1 (aa 397-508) on yeast (human, UniProt Q53EL9 416-527); test: yeast display, flow cytometry;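 further: antibody binding to individual SEZ6 domains displayed on yeast, measured by flow cytometry, antibody at 50 nM purified or hybridoma supernatant diluted 1:2, 90 min on ice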
T7 construct: yeast display
T7 sequence: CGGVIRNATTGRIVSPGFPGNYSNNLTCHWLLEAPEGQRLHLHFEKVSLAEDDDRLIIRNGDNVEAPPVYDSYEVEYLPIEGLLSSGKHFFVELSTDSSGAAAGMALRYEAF

[4] = biological target: T8, SEZ6 Sushi Domain 1 (amino acids 336-395) on yeast (human, UniProt Q53EL9 355-414); test: yeast display, flow cytometry;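 further: antibody binding to individual SEZ6 domains displayed on yeast, measured by flow cytometry, antibody at 50 nM purified or hybridoma supernatant diluted 1:2, 90 min on ice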
T8 construct: yeast display

[5] = biological target: T9, mouse SEZ6 on Neuro2a cells (mouse, UniProt Q7TSK2 20-991); test: flow cytometry on Neuro2a cells expressing mouse SEZ6
T9 construct: endogenous on Neuro2a cells; also called murine SEZ6; mSEZ6

[6] = biological target: T10, rat SEZ6 on RIN-m5F cells (rat, UniProt Q7TSK2 20-991 (mouse entry)); test: flow cytometry on RIN-m5F cells expressing rat SEZ6, verified by BLI or SPR on rat SEZ6-His
T10 construct: endogenous on RIN-m5F cells; also called rSEZ6
T10 chain: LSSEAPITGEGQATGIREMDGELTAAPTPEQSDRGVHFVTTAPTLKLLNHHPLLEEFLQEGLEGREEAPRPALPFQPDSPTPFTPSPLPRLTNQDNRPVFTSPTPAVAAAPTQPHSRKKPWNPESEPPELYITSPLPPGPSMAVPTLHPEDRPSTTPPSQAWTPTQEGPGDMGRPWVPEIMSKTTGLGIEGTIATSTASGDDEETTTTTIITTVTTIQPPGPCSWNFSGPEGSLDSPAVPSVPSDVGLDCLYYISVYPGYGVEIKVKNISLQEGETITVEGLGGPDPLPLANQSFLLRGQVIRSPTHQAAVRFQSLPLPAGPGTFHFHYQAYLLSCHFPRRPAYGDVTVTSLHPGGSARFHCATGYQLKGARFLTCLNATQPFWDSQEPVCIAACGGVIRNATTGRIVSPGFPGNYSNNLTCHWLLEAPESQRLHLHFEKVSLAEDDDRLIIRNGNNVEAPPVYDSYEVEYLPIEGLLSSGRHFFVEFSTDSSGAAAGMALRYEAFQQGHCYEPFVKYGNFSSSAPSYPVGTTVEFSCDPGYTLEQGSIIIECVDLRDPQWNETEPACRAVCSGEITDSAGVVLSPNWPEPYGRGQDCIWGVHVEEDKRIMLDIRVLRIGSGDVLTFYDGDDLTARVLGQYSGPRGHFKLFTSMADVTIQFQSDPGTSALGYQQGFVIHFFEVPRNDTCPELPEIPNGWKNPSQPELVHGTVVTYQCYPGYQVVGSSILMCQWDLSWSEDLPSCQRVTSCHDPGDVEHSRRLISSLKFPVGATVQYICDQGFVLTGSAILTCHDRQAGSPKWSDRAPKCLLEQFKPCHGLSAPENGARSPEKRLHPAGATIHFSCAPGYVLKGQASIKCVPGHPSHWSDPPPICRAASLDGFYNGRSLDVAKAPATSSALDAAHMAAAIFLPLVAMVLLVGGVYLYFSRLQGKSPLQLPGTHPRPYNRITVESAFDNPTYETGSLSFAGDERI

binding result (human SEZ6L ECD-His): no binding (tested: 1 µg/mL)
binding result (human SEZ6L2 ECD-His): no binding (tested: 1 µg/mL)
binding result [1]: no binding (tested: 5 µg/mL)
Kd (rSEZ6-ECD-His): 3 nM
Kd (hSEZ6-ECD-His): 2.7 nM
B1: SC17.42 (antibody, V domains shown)
VH: DVKLVESGGGLVRPGGSLKLSCAASGFTFSRYTMSWVRQTPEKRLEWAATINSGGSNTYYPDSVKGRFTISRDNAKNTLFLQMSSLKSEDTAMYYCTNGNHWGQGTTLTVSS
VL: ENVLTQSPAIMSASPGEKVTMTCSASSSVNYMYWYQQKSSTSPKLWIYDTSKLTSGVPGRFSGSGSGNSYSLTISNMEAEDVATYYCFQGSGYPLTFGSGTKLEIK
notes: murine mAb

binding result [2]: binds
B2: SC17.72 (antibody, V domains shown)
VH: EVQLVESGGGLVKPGGSLKLSCAASGFTFSSYGMSWVRQTPEKRLEWVAAINSNGGSTYYPDTVKGRLTISRDNGKNTLYLQMSSLRSEDTALYYCVRDDGYYVFFAYWGQGTLVTVSA
VL: DIQMTQTTSSLSASLGDRVTISCSASQGISNYLNWYQQKPDGTVKLLIYYTSSLHSGVPSKFSGSGSGTDYSLTISNLEPEDIATYYCQQYSKLPYTFGGGTKLEIK
notes: murine mAb

binding result [3]: binds
B3: SC17.76 (antibody, V domains shown)
VH: EVQLVESGGDLVKPGGSLKLSCVASGFTFSSYGMSWVRQTPDKRLEWVATISSGGTFTYYPDSVKGRFTVSRDNAKNTLYLQMSSLKSEDTAMYYCSRHGWGWGQGTLVTVSA
VL: DIVITQDELSNPVTSGESVSISCRSSKSLLYKDGKTYLNWFLQRPGQSPQLLIYLMSTRASGVSDRFSGSGSGTDFTLEISRVKAEDVGVYYCQQLVEYPRTFGGGTKLEIK
notes: murine mAb

binding result [3]: binds
B4: SC17.122 (antibody, V domains shown)
VH: B3 VH with Q3H, V23A, F57Y, V70I
VL: B3 VL with E8D
notes: murine mAb

binding result [4]: binds
binding result (human SEZ6L ECD-His): no binding (tested: 1 µg/mL)
binding result (human SEZ6L2 ECD-His): no binding (tested: 1 µg/mL)
binding result [5]: no binding (tested: 5 µg/mL)
binding result [1]: no binding (tested: 5 µg/mL)
binding result [6]: no binding (tested: 5 µg/mL)
B5: SC17.46 (antibody, V domains shown)
VH: QVQLQQPGAELVKPGASMKLSCKASGYTFTSYWINWVKQRPGQGLEWIGNIFPDTTTTNYNEKFKSKATLTVDTSSSTAYMQLSSLTSDDSAVYYCAREYYDGTYDAMDYWGQGTSVTV
VL: SFVMTQTPKFLLVSAGDRVTITCKASQSVNNDVAWYQQKPGQSPKLLIYYASNRYTGVPDRFTGSGYGTDFTFTISTVQAEDLAVYFCQQDYSSPRTFGGGTKLEIK
notes: murine mAb
